Measured values from patent publication US20200239597A1, “AN ANTI-APOPTOTIC FUNCTION OF PKM2 AND INTRACELLULARLY EXPRESSED SCFV ANTIBODIES” (La Jolla Institute for Allergy and Immunology, priority 2017, published 2020).

Experiments:
WT PKM2 [1] = molecular target: T1, WT PKM2 (Homo sapiens, UniProt P14618); assay: Blue native gel electrophoresis of recombinant proteins, WT PKM2; assay type: binding
T1 construct: His (N); made in house; host or cells: Escherichia coli BL21(DE3)
Experimental: (§1) Left: A monovalent form of scFv 5, produced in E. coli, induced tetramer formation in WT PKM2 along with a bandshift whose magnitude was dependent on the input amount of scFv 5. […] Reaction volume was 20 μl.
Because glucose metabolism can influence cell survival (Fulda and Debatin, 2007; Moley and Mueckler, 2000; Munoz-Pinedo et al., 2012), The present inventors asked whether IB5 could rescue cells simply through stimulating PKM2's glycolytic activity. First, to analyze the antibody's interaction with PKM2, the present inventors produced monovalent scFv 5 and PIKM2 as recombinant proteins in E. coli and analyzed mixtures of these proteins, by blue native gel electrophoresis (FIG. 3A).

Mfn1, Mfn2 = assay: Immunoblot of Mfn1 and Mfn2 protein levels in reconstituted MEFs; assay type: cell-based, mouse
293T cells = assay: siRNA silencing of PKM2, rescue from BimS killing; assay type: cell-based, human; settings: 30 nM PKM2-specific siRNA
Experimental: 5×10^5 cells were incubated per well for 12 h, then cells were either mock-transfected, transfected with 30 nM PKM2-specific siRNA (si M2), or transfected with NF-kB p50-specific siRNA (si p50). After a further 36-h incubation, samples of the same siRNAs were added along with 4 μg of BimS cDNA in fresh medium. Viable cells were counted after another 48-h incubation.
Untreated or IB5-infected 293T cells (5×10^5 per well) were seeded into 6-well plates (Falcon) and transfected with 30 nM siRNA. Lipofectamine™ 2000 (Invitrogen, Carlsbad, Calif., USA) was used for transient transfection according to the manufacturer's protocol. After a 30-h incubation, fresh medium containing 30 nM siRNA and 4 μg/ml BimS expression plasmid was added. Cell viability assay was assayed after a further 36-h incubation. The PKM2-siRNA and control siRNA were purchased from Dharmacon (SiGENOME SMART™ pool hPKM2, Si156, and ONTARGETplus™ non-targeting siRNA #2) (Goldberg and Sharp, 2012).

PKM2 (K422R) [2] = molecular target: T2, PKM2 (K422R) (Homo sapiens, UniProt P14618, K422R); assay: Blue native gel electrophoresis, PKM2 (K422R); assay type: binding; settings: with or without FBP
T2 construct: His; made in house; host or cells: Escherichia coli BL21(DE3) (stated generally for WT and mutant PKM2)
Experimental: as §1
To test the possibility that PKM2 tetramerization is important for the cell survival activity, the present inventors reconstituted PKM2-deficient MEFs with the stably tetrameric PKIM2 (K422R) mutant. […] Blue native gel electrophoresis confirmed the spontaneous formation of K422R tetramers, in the absence of FBP (FIG. 4A). […] The present inventors conclude that IB5 can bind to PKIM2 (K422R), at least to the active R-state form. Interaction of IB5 may further stabilize the active R-state conformation of PKM2, especially in the presence of the allosteric activators FBP or TEPP-46.

PKM2 (K422R) [3] = molecular target: T2, PKM2 (K422R); assay: Pyruvate kinase assay, PKM2 (K422R); assay type: biochemical
Experimental: (§2) Activity was measured by Kinase-Glo® Plus Luminescent Kinase Assay kit (promega), using ADP and PEP as substrates), with PKM2 at 50 nM. Shown are values with the basal activity of PKM2 alone subtracted out.
(§3) Pyruvate kinase activity was measured by using Kinase-Glo® Plus Luminescent Kinase Assay kit (Promega). 50-100 nM of purified WT or mutant PKM2 was added in 100 μl assay buffer containing 50 mM Tris pH7.5, 100 mM KCl, 10 mM MgCl2, 200 μM PEP, 200 μM ADP, and 3% DMSO. After a 15-min incubation, Kinase-Glo Plus™ reagent (Promega Corporation, Madison, Wis., USA) was added, according to the manufacturer's instructions. In some cases, 0-40 μM fructose 1,6-bisphosphate (FBP) and 0-150 nM scFv 5 were added.

WT PKM2 [4] = molecular target: T1, WT PKM2; assay: Pyruvate kinase assay (Kinase-Glo Plus), WT PKM2; assay type: biochemical; settings: PKM2 at 50 nM; ADP and PEP as substrates
Experimental: as §2, §3

PKM1 = PKM1 (Homo sapiens, UniProt P14618); assay: Blue native gel electrophoresis of recombinant proteins, PKM1; assay type: binding
[5] = test system: mouse embryonic fibroblasts (MEFs); assay: BimS-induced death in MEFs (WT, PKM2-deficient, reconstituted), surviving cells counted; assay type: cell-based
Experimental: Wild type (WT) mouse embryonic fibroblasts (MEFs), PKM2-deficient MEFs, or PKM2-deficient MEFs reconstituted with WT or mutant PKIM2 cDNA, were infected or not with IB5, then later transfected with BimS expression plasmid. Surviving cells were counted 48 h afterwards.
Cell viability was measured with a Countess™ Automated Cell Counter (Invitrogen) using trypan blue. For the clonogenic survival assay, 293T or MEFs cells were seeded in 6-well plates at 1×10^5 cells/well in a 2-ml volume, transfected with BimS cDNA and incubated for 24 h. Afterwards, the medium was replaced and the cells cultured for 3-4 days. Thereafter, the plates were rinsed with PBS and fixed and stained with a solution containing crystal violet (0.5% w/v) and glutaraldehyde (6% v/v) as described (Franken et al., 2006).

[6] = test system: PKM2-deficient MEFs reconstituted with WT PKM2; assay: Mitochondrial length by fluorescence microscopy (Tom20 staining); assay type: cell-based, mouse; settings: PKM2-null MEFs reconstituted with WT PKM2
Source text: IB5 expression with WT PKM2 increased mitochondrial length, and PKM2 (K422R) expression increased mitochondrial length even in the absence of IB5. PKM2-deficient MEFs reconstituted with WT PKIM2 or PKM2(K422R) cDNA, were infected or not with IB5 lentivirus. […] Mitochondria were visualized by fluorescence microscopy after staining with Tom20 antibodies. Representative confocal images are shown.
Cells were analyzed 3 d after transfection with the indicated cDNA constructs (mean±s.e.m. of 3-5 experiments of 120-200 random selected cells.

PKM2 (K270M) = molecular target: T3, PKM2 (K270M) (Homo sapiens, UniProt P14618, K270M); assay: Pyruvate kinase assay, PKM2 (K270M); assay type: biochemical; settings: high concentrations of scFv 5
T3 construct: His (N); made in house; host or cells: Escherichia coli BL21(DE3)
Experimental: as §2, §3

HCT116 cells = assay: Clonogenic rescue from BimS-induced death, HCT116; assay type: cell-based

T1 sequence (P14618 whole entry): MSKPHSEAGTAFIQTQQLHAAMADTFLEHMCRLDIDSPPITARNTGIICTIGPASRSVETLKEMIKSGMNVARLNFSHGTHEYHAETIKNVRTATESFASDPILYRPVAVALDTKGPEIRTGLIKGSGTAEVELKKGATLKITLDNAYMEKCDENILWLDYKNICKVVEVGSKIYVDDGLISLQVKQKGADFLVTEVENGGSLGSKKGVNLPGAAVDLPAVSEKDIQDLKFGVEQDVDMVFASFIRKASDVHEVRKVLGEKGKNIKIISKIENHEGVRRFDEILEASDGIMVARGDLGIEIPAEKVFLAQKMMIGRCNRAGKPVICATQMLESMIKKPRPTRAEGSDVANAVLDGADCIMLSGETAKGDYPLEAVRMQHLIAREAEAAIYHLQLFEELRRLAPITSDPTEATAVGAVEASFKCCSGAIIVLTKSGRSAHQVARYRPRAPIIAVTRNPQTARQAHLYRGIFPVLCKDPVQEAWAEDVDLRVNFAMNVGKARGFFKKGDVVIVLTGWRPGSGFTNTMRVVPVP
T2 sequence (P14618 whole entry K422R): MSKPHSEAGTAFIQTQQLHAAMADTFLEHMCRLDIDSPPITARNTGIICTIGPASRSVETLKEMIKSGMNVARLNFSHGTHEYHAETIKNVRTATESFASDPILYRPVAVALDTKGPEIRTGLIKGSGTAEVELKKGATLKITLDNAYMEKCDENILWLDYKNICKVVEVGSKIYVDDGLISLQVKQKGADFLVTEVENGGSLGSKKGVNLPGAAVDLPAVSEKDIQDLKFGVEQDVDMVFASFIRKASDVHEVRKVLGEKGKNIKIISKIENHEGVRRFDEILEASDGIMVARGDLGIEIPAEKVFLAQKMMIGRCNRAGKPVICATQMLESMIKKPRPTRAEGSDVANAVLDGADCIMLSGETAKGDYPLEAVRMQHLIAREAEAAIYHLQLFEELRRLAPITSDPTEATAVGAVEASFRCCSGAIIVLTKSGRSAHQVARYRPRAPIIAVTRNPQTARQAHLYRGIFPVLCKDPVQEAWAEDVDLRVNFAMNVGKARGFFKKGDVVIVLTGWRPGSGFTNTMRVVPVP
Chain of PKM1 (P14618 1-531 isoform P14618-2, species assumed): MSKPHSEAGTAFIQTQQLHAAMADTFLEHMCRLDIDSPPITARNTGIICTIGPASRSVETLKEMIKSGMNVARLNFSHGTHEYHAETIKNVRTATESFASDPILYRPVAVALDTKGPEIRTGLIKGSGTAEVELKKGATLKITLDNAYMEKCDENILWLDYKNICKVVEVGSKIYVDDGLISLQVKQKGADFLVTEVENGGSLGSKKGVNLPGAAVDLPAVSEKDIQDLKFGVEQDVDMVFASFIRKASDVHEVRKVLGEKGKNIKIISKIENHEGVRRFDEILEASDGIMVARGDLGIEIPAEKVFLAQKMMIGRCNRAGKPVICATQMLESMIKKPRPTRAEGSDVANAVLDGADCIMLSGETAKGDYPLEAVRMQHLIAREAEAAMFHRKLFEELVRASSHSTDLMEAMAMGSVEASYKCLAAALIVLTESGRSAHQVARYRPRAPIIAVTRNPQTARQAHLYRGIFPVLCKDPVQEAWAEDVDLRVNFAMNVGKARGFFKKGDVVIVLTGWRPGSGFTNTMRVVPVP
T3 sequence (P14618 whole entry K270M): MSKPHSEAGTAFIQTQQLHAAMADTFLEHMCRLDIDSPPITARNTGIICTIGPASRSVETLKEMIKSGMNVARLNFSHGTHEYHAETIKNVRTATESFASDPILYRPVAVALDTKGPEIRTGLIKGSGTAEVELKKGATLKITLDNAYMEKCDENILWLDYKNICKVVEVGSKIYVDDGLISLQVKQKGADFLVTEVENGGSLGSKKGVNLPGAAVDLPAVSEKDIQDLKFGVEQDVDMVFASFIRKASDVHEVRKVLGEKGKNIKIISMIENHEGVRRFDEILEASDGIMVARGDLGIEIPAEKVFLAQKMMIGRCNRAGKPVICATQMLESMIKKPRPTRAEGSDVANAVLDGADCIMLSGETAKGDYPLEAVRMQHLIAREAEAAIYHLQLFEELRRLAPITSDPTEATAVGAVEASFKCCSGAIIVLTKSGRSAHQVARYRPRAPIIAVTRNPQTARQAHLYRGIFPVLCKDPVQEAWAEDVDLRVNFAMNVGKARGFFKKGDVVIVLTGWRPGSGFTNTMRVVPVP

B1: IB5: intracellularly expressed single-chain antibody (scFv) specific for PKM2, SEQ ID NO: 2; also made as monovalent recombinant scFv in E. coli (protein)
scFv: MAQVQLVETGPGLVKPSETLSLRCTVSGGSFDNYYWNWIRQPPGKGLEYIGYVFPSTGATNYNPSLGSRVTISLDTSKNQFSLTLTSVTTADTAIYYCVRSGHDLWTGSTWFDPWGQWTTVTVSSGGGGSGGGGSGGGGSEIVLTQSPGTLSLSPGERATLSCRASQSVSSSYLAWYQQKPGQAPRLLIYGASSRATGIPDRFSGSGSGTDFTLTISRLEPEDIAVYYCQQRSNWPRTFGQGTKVEIKRGLGGLASVDYKDDDDK
modifications: artificial intrabody clone 5
notes: also made as monovalent recombinant scFv in E. coli
Q: How did the “tetramer formation of WT PKM2” value (WT PKM2 [1]; blue native gel) turn out when B1 was run?
A: The value was “strongly increased the tetrameric PIKMV2 species”.

Q: And the “direct binding to PKM2” value (WT PKM2 [1]; in vitro experiments)?
A: Its value is “bound directly to PKM2”.

Q: What about the “levels of Mfn1” value (Mfn1, Mfn2; cells expressing the K422R mutant) of the same molecule?
A: Its value is “upregulated Mfn1 even further”.

Q: And the Mfn2 levels (Mfn1, Mfn2; reconstituted MEFs)?
A: Its Mfn2 levels is “left Mfn2 levels unchanged”.

Q: And the “levels of Mfn1” value (Mfn1, Mfn2; reconstituted MEFs)?
A: The value was “substantially increased”.

Q: What about the “ability to rescue cells from BimS killing after PKM2 silencing” value (293T cells) of the same molecule?
A: The value was “substantial reduction”.

Q: What about the “shift of the PKM2 (K422R) tetramer band” value (PKM2 (K422R) [2]) of the same molecule?
A: The value was “shifted the tetramer band up only in the presence of allosteric activator FBP”.

Q: What about the “glycolytic activity of PKM2 (K422R)” value (PKM2 (K422R) [3]) of the same molecule?
A: The value was “stimulated the glycolytic activity of PKM2 (K422R) in a concentration-dependent manner”.

Q: What about the “activity of PKM2 (K422R) compared with WT PKM2” value (PKM2 (K422R) [3]; high concentrations of scFv 5) of the same molecule?
A: Its value is “at least equal to that of WT PKM2”.

Q: What about the “glycolytic (pyruvate kinase) activity of WT PKM2” value (WT PKM2 [4]) of the same molecule?
A: The value was “stimulated PKM2's glycolytic activity in a concentration-dependent manner”.

Q: What about the “shift of electrophoretic mobility of recombinant PKM1” value (PKM1) of the same molecule?
A: Its value is “failed to shift the electrophoretic mobility”.

Q: What about the “rescue from BimS-induced killing” value ([5]; PKM2-deficient MEFs) of the same molecule?
A: The value was “entirely abrogated”.

Q: And the “cell rescue after reconstitution” value ([5]; PKM2-null MEFs reconstituted with PKM2 (K270M))?
A: The value was “failed to support IB5-induced cell rescue”.

Q: What about the “cytoprotective ability after reconstitution” value ([5]; PKM2-null MEFs reconstituted with WT PKM2 cDNA) of the same molecule?
A: The value was “restored the cytoprotective ability of IB5”.

Q: What about the “rescue from BimS-induced killing” value ([5]; WT MEFs) of the same molecule?
A: Its value is “rescued a percentage of the WT cells”.

Q: And the “numbers of viable cells” value ([5]; early-passage MEFs reconstituted with PKM2 (K422R))?
A: The value was “further increased viability”.

Q: What about the average mitochondrial length [6] of the same molecule?
A: The average mitochondrial length was “increased the average mitochondrial length”.

Q: And the “catalytic activity of PKM2 (K270M)” value (PKM2 (K270M))?
A: The value was “increased the catalytic activity”.

Q: And the “protection from BimS-induced apoptosis (clonogenicity)” value (HCT116 cells)?
A: Its value is “substantially protected”.
